To fix the notation:
B1: AS170036 VL1VH1 HD102V (scFv)
scFv: QSALTQPRSVSGSPGQSVTISCAGTSSDVGSENYVSWYQQHPGKAPKLMIYQVNKRASGVPDRFSGSKSGNTASLTISGLQAEDEADYYCASYRSSDHNIVFGGGTKLTVLGGGGSGGGGSGGGGSEVQLVESGGGLVQPGGSLRLSCAASGFTFSSYAMSWVRQAPGKGLEWVSTINSGTGSPYYADSVKGRFTISRDNSKNTLYLQMNSLRAEDTAVYYCAKNFFVGSWFLGPPAMDYWGQGTLVTVSSHHHHHH
B2: AS170036 VL1VH1 HG56D (scFv)
scFv: B1 scFv with G182D, V228D
B3: AS170036 VL1VH1 HG56I (scFv)
scFv: B1 scFv with G182I, V228D
B4: AS170036 VL1VH1 HL107S (scFv)
scFv: B1 scFv with V228D, L233S
B5: AS170036 VL1VH1 HL107Q (scFv)
scFv: B1 scFv with V228D, L233Q
B6: AS170036 VL1VH1 HG56E (scFv)
scFv: B1 scFv with G182E, V228D
B7: AS170036 VL1VH1 HF101W (scFv)
scFv: B1 scFv with F227W, V228D
B8: AS170036 VL1VH1 HL107G (scFv)
scFv: B1 scFv with V228D, L233G
B9: AS170036 VL1VH1 HG56M (scFv)
scFv: B1 scFv with G182M, V228D
B10: AS170036 VL1VH1 HG56V (scFv)
scFv: B1 scFv with G182V, V228D
B11: AS170036 VL1VH1 HL107A (scFv)
scFv: B1 scFv with V228D, L233A
B12: AS170036 VL1VH1 HG108L (scFv)
scFv: B1 scFv with V228D, G234L
B13: AS170036 VL1VH1 HL107V (scFv)
scFv: B1 scFv with V228D, L233V
B14: AS170036 VL1VH1 HG108T (scFv)
scFv: B1 scFv with V228D, G234T
B15: AS170036 VL1VH1 HL107T (scFv)
scFv: B1 scFv with V228D, L233T
B16: AS170036 VL1VH1 HG56Q (scFv)
scFv: B1 scFv with G182Q, V228D
B17: AS170036 VL1VH1 HG56W (scFv)
scFv: B1 scFv with G182W, V228D
B18: AS170036 VL1VH1 HF101Y (scFv)
scFv: B1 scFv with F227Y, V228D
B19: AS170036 VL1VH1 HG108Y (scFv)
scFv: B1 scFv with V228D, G234Y
B20: AS170036 VL1VH1 HL107I (scFv)
scFv: B1 scFv with V228D, L233I
B21: AS170036 VL1VH1 HG56R (scFv)
scFv: B1 scFv with G182R, V228D
B22: AS170036 VL1VH1 HP58A (scFv)
scFv: B1 scFv with P184A, V228D
B23: AS170036 VL1VH1 HG56H (scFv)
scFv: B1 scFv with G182H, V228D
B24: AS170036 VL1VH1 HF101N (scFv)
scFv: B1 scFv with F227N, V228D
B25: AS170036 VL1VH1 HF101H (scFv)
scFv: B1 scFv with F227H, V228D
B26: AS170036 VL1VH1 HP58E (scFv)
scFv: B1 scFv with P184E, V228D
B27: AS170036 VL1VH1 HF101D (scFv)
scFv: B1 scFv with F227D, V228D
B28: AS170036 VL1VH1 HG108H (scFv)
scFv: B1 scFv with V228D, G234H
B29: AS170036 VL1VH1 HG108I (scFv)
scFv: B1 scFv with V228D, G234I
B30: AS170036 VL1VH1 HG108F (scFv)
scFv: B1 scFv with V228D, G234F
B31: AS170036 VL1VH1 HP58D (scFv)
scFv: B1 scFv with P184D, V228D
B32: AS170036 VL1VH1 HG56K (scFv)
scFv: B1 scFv with G182K, V228D
B33: AS170036 VL1VH1 HF106W (scFv)
scFv: B1 scFv with V228D, F232W
B34: AS170036 VL1VH1 HG108Q (scFv)
scFv: B1 scFv with V228D, G234Q
B35: AS170036 VL1VH1 HL107M (scFv)
scFv: B1 scFv with V228D, L233M
B36: AS170036 VL1VH1 HG56T (scFv)
scFv: B1 scFv with G182T, V228D
B37: AS170036 VL1VH1 HG56P (scFv)
scFv: B1 scFv with G182P, V228D
B38: AS170036 VL1VH1 HG108W (scFv)
scFv: B1 scFv with V228D, G234W
B39: AS170036 VL1VH1 HG108R (scFv)
scFv: B1 scFv with V228D, G234R
B40: AS170036 VL1VH1 HD102W (scFv)
scFv: B1 scFv with V228W
B41: AS170036 VL1VH1 HG108V (scFv)
scFv: B1 scFv with V228D, G234V
B42: AS170036 VL1VH1 HP58F (scFv)
scFv: B1 scFv with P184F, V228D
B43: AS170036 VL1VH1 HL107N (scFv)
scFv: B1 scFv with V228D, L233N
B44: AS170036 VL1VH1 HG56S (scFv)
scFv: B1 scFv with G182S, V228D
B45: AS170036 VL1VH1 HG56L (scFv)
scFv: B1 scFv with G182L, V228D

The values that follow come from patent US20240279318A1 (NANJING LEGEND BIOTECH, published 2024).

Residue numbers refer to the chain shown, from its start.
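Throughout, for Kd: Peptide–MHC complex flowed at several concentrations over sensorchip-captured scFv, Kd derived from on- and off-rates obtained from the association and dissociation curves.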

One test has as its target T1, AFP158/HLA-A*02:01 complex (human).
T1 construct: biotinylated on the BSP by BirA for ELISA and panning; also called biotinylated AFP158/HLA-A*02:01 complex; Bio-AFP158
Put plainly: SPR, crude scFv captured. (In SPR one partner is held on a chip, and binding of the other changes the refractive index at the surface.)
Usually Kd stands for the free concentration of one partner at which half of the binding sites on the other are occupied at equilibrium, for simple one-to-one binding. A lower Kd goes with higher affinity. The molecule B1 registered a dissociation constant (Kd) of 1800 nM.
On the same count and under the same terms, the figure for B2 is 230 nM; for B3 it is 1100 nM.
B4 came in with a Kd of 4100 nM. Compared with the last molecule, the Kd is about 3.7-fold higher.
The same measure, in the same setting: the figure for B5 is 1600 nM; for B6 it is 240 nM.
On the same count and under the same terms, the figure for B7 is 300 nM; for B8 it is 4400 nM.
B9 showed a Kd of 130 nM.
As to B10, binding was characterised by a dissociation constant (Kd) of 630 nM.
On the same count and under the same terms, the figure for B11 is 3300 nM; for B12 it is 200 nM.
On the same count and under the same terms, the figure for B13 is 2500 nM; for B14 it is 530 nM; for B15 it is 2800 nM.
Same read-out and setting: the figure for B16 is 240 nM; for B17 it is 130 nM.
Molecule B18 yielded a Kd of 210 nM.
The same measure, in the same setting: the figure for B19 is 1100 nM.
Still for that read-out and setting: the figure for B20 is 240 nM; for B21 it is 300 nM; for B22 it is 380 nM.
The same measure, in the same setting: the figure for B23 is 150 nM; for B24 it is 3700 nM; for B25 it is 830 nM.
On to B26, for which binding was put at a Kd of 600 nM.
B27 registered a Kd of 1400 nM.
Turning to B28, the equilibrium dissociation constant (Kd) came out at 660 nM.
For B29, the Kd amounted to 1000 nM. Against the preceding molecule, the Kd is about 1.5-fold higher.
B30: the Kd was 810 nM. The Kd values of the last two molecules are within 1.5-fold of each other.
Still for that read-out and setting: the figure for B31 is 660 nM.
The same measure, in the same setting: the figure for B32 is 350 nM; for B33 it is 630 nM.
The same measure, in the same setting: the figure for B34 is 200 nM; for B35 it is 370 nM; for B36 it is 340 nM.
With B37, binding was characterised by a dissociation constant (Kd) of 1600 nM.
Turning to B38, binding was characterised by a dissociation constant (Kd) of 2300 nM.
As to B39, binding was characterised by a dissociation constant (Kd) of 1500 nM.
Consider B40, for which binding was put at a Kd of 2200 nM.
On the same count and under the same terms, the figure for B41 is 370 nM; for B42 it is 1700 nM.
The same measure, in the same setting: the figure for B43 is 530 nM.
With B44, the Kd came to 160 nM.
Same read-out and setting: the figure for B45 is 290 nM.

In a further test the target is T1, AFP158/HLA-A*02:01 complex. Kind of test: SPR; vs AS170036 VL1VH1.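 Note: crude scFv captured on sensor chip, peptide–HLA complex flowed over at several concentrations, KD estimated from association and dissociation kinetic rates.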
Method: The experiment was carried out as follows. The crude scFv protein were captured onto the sensorchip. Different concentrations (320, 160, 40 nM) of AFP158/HLA-A*02:01 complex flowed over the sensorchip surface, and were allowed to bind the antibody fragment for 100 s followed by injection of the running buffer to allow dissociation of the complex. On-rate (kd) and off-rate (kd) were calculated based on association and dissociation curve, and were used to estimate the equilibrium dissociation constant (KD).
For the molecule B1, the Affinity increase came out at 0.1 fold.
Same read-out and setting: the figure for B2 is 1 fold; for B3 it is 0.2 fold.
Regarding B4, the Affinity increase is 0.1 fold.
On to B5, for which the Affinity increase is 0.2 fold.
Molecule B6 yielded an Affinity increase of 1 fold.
On the same count and under the same terms, the figure for B7 is 0.8 fold.
B8 yielded an Affinity increase of 0.1 fold.
The same measure, in the same setting: the figure for B9 is 1.7 fold; for B10 it is 0.4 fold; for B11 it is 0.1 fold.
The same measure, in the same setting: the figure for B12 is 1.4 fold.
Still for that read-out and setting: the figure for B13 is 0.1 fold; for B14 it is 0.5 fold.
Molecule B15 gave an Affinity increase of 0.1 fold.
Still for that read-out and setting: the figure for B16 is 1 fold.
The same measure, in the same setting: the figure for B17 is 1.7 fold; for B18 it is 1.1 fold.
B19 registered an Affinity increase of 0.2 fold.
Still for that read-out and setting: the figure for B20 is 1.1 fold; for B21 it is 0.8 fold.
On the same count and under the same terms, the figure for B22 is 0.7 fold.
As for B23, the Affinity increase was found to be 1.5 fold.
The molecule B24 yielded an Affinity increase of 0.1 fold.
As to B25, the Affinity increase worked out at 0.3 fold.
In turn, B26 gave an Affinity increase of 0.5 fold.
Molecule B27 registered an Affinity increase of 0.2 fold.
Consider B28, for which the Affinity increase was 0.4 fold.
Molecule B29 showed an Affinity increase of 0.2 fold.
Still for that read-out and setting: the figure for B30 is 0.3 fold; for B31 it is 0.4 fold.
On the same count and under the same terms, the figure for B32 is 0.7 fold.
In turn, B33 displayed an Affinity increase of 0.4 fold.
The molecule B34 came in with an Affinity increase of 1.4 fold.
The molecule B35 gave an Affinity increase of 0.7 fold.
Still for that read-out and setting: the figure for B36 is 0.7 fold; for B37 it is 0.1 fold; for B38 it is 0.1 fold.
Still for that read-out and setting: the figure for B39 is 0.2 fold; for B40 it is 0.1 fold; for B41 it is 0.7 fold.
Same read-out and setting: the figure for B42 is 0.2 fold; for B43 it is 0.5 fold; for B44 it is 1.5 fold.
As to B45, the Affinity increase worked out at 0.8 fold.
